For two sequences, Kd results are on record in PMC5397175.

In series [1] the target is T1, SLM2 (T-STAR) STAR domain (UniProt O75525).
T1 sequence: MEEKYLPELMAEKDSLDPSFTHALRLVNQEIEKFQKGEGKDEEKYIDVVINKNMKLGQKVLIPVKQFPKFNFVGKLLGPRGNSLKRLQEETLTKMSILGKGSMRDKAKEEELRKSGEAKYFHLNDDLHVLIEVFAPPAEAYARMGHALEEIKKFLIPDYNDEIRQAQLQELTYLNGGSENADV
Put plainly: fluorescence polarization. To be noted: FP buffer, salt, pH and temperature not given in the material; SD from three independent experiments. On the technique in general: Fluorescence polarisation rises when a labelled molecule tumbles more slowly, as on binding a larger partner.

Series [2] addresses Sam68 STAR domain (UniProt Q07666). The series is described as follows: fluorescence polarization. As to conditions: FP buffer, salt, pH and temperature not given in the material; SD from three independent experiments.

Sequence of Sam68 STAR domain (Q07666 97-283): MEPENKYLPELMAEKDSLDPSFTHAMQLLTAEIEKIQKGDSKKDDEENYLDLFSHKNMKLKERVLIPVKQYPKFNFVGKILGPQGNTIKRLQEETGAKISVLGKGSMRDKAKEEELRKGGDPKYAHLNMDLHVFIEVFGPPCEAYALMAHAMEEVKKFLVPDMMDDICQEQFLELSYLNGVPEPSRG

The term Kd denotes the equilibrium constant for the complex coming apart. Turning to CCCACAGUUUAAAAUUUGAUAAAAUUU [Stxbp5l 1], the Kd in series [1] turned out to be 24 µM; in series [2], 15.5 µM.

On to “CCCUUACAUUUAAAAGAUGAUUUAAAAA [Stxbp5l 2]”, for which the Kd in series [1] came to 18.2 µM; in series [2] it was 13.8 µM.
